Test results taken from the RNAGym collection of RNA variant scans (doi:10.1073/pnas.2313332121).
Variants at the floor of the assay were thinned out.

B1: TPR 5TU (parent)
chain: GGAUCUUCUCGAUCUAACAAAAAAGACAAAUCUGCCACAAAGCUUGAGAGCAUCUUCGGAUGCAGAGGCGGCAGCCUUCGGUGGCGCGAUAGCGCCAACGUUCUCAACUAUGACACGCAAAACGCGUGCUCCGUUGAAUGGAGUUUAUCAUG

Variants of: B1
Test: polymerase ribozyme fitness, log enrichment relative to wild type (log ratio); higher = more active; in vitro selection for triplet polymerase activity
Summary of the method: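 Mutant libraries of each subunit of a heterodimeric triplet polymerase ribozyme were built by PCR and transcribed. Each library went through one round of in vitro selection in triplicate: annealing with biotinylated primer, partner subunit and triplets, frozen incubation at −7 °C, gel excision of extended constructs, streptavidin-bead capture and RT-PCR. Input and output libraries were Illumina-sequenced; only genotypes with ≥10 input reads and ≥1 read per output were kept. Fitness is log2(genotype enrichment/wild-type enrichment), using inverse-variance-weighted replicate averages.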

Variant	polymerase ribozyme fitness (log ratio)
C54U G84A C93G	≤ -4.2
A52G U53A	-0.907
U53A U61G C99U G136A	-3.67
C54A G83C	-3.55
C54U C72U U135C	-3.15
U53A C54U C57A G62A C85A G126U	≤ -4.2
U53A G133U	-3.53
A52G U77G U82C A91G A106U G140A U144A G152U	≤ -4.2
C54A A60G G81A A91U A106U A110G G141C	≤ -4.2
A52G C72U	-0.83
U53A C76A C87U A107C	≤ -4.2
C54U A142U	-0.665
U53A G70A	-3.81
U53A G70C	≤ -4.2
C54U G83A A147U	-0.818
U53C C95U C125U A147U U148A U151G	≤ -4.2
A52U U55A C87G	≤ -4.2
C54A C57G A60U C87U C95U G136A	-4.11
A52U U53A U101G	-2.73
U53A G141A	-1.9
U53A C79A	≤ -4.2
A52U C85U	-1.59
A52G U77G G88C	≤ -4.2
C54G G71C C85U C93U U144G	≤ -4.2

Variant	polymerase ribozyme fitness (log ratio)
C54U U82C U90C C96A U101G	≤ -4.2
C54A G124A C125U A147C	-2.1
A52U G59A U82G U145A U146C	-0.208
A52G U53G U77G C131G	≤ -4.2
C54A G70U A91U C114U A119U A120U	≤ -4.2
U53A C69U	-4.11
A52G G59A C75U	-0.737
U53G C95U U139G	-1.58
C54A G94C A107C C108G	≤ -4.2
C54G A122G U144G	-0.687
C54U U55A C87A	≤ -4.2
U53A C54G C95A	-1.73
U53A C75G	≤ -4.2
A52G G65A G68U G92U C103U A119U U139C	≤ -4.2
U53A C93U	-2.51
U53A C96U C118A	-1.21
A52U G59C U101G A122U U144C	-2.67
U53C C87G U101A	≤ -4.2
U53A C149G	-3.71
U53A A110G	-3.7
C54U U56A G84U	-0.698
C54U C93A	-2.6
U53A G83U A115C G124A	-2.73
U53A C87U A150U	-0.451

Variant	polymerase ribozyme fitness (log ratio)
U53A G68U G88U U90C	≤ -4.2
A52G C93A G140A	≤ -4.2
C54A C132U	-2.3
C54U G81A C93U C105A	-2.59
A52G G83A C118U A150G	-2.35
C54G C96G G128U	≤ -4.2
U53A G59U	0.71
U53A G59A	-0.147
U53A G86C A91U G136A	≤ -4.2
U53A G65A	-1.33
C54A A91U C108U G124U A138C G141A	≤ -4.2
C54A U61C G65A G88U C95G C103G A115C A119C U135G U144G	≤ -4.2
U53A C57G C75G G83C U102A A121U U144A U145C	≤ -4.2
A52U C105U	-1.7
A52G C96G	-2.13
C54A G86A	-3.13
A52G C69G G71C	-2.11
C54G G74C G80A C96U A138U	≤ -4.2
U53A G84A C87U A106G	-3.23
U53A C85A	-4
U53A C85G	-3.15
C54U U56A C93U C131G G133A U146A G152U	-4
A52U G58U U90C C118U G126C A138C	≤ -4.2
U53G G83C	-3.03

Variant	polymerase ribozyme fitness (log ratio)
C54U U55A C93U	-0.48
U53A U56A C105U	-1.66
U53C U139G	0.0757
U53A G83U	-0.881
C54U G80U	-0.459
A52U U82C G92U C116G A121U	-3.06
C54G C96U A142C	-3.34
U53A A122G	-0.748
C54A G92U	-2.39
A52G C96G C131U	-0.425
U53A G70C C149G	≤ -4.2
U53G G94A	-4.1
C54U U56A G70A C85A G86U C95G	≤ -4.2
U53A C85A G124A	-2.89
U53A G100A	≤ -4.2
C54A G86U U101G	-3.14
C54U G58A G94U	-0.705
U53G G58C G92A C125G A150C	≤ -4.2
U53A C105A	-2.83
C54G C103U	-2.16
C54A U77A C96G U127G	≤ -4.2
U53G A150U	-1.34
C54G G84C U109C U134G U148A	≤ -4.2
C54U U56A A60G G84U G126U	-1.81

Variant	polymerase ribozyme fitness (log ratio)
U53A U102G G133U U144G	≤ -4.2
U53A A73G U78C G133A	≤ -4.2
C54U G117C C123U	-0.0466
C54A U61A A73G U77G G100A	≤ -4.2
A52G U82A C96G	0.187
C54U G84A	-0.613
A52U A150C	-4.03
A52U C85U C96A C116U	-2.69
U53A A91C U101C	≤ -4.2
U53A U55A A121U	-2.74
U53A C95U U104G A115U C123U	-3.81
U53A C87A A107C C108A U111G U146C U148A	≤ -4.2
C54U A97U A107C	≤ -4.2
C54A G84C	-2.93
U53A U104G	-1.97
U53A G58C G59U A91G C108A G124U G126U	≤ -4.2
C54U G126U	0.161
A52U G58U C95U	-1.52
U53A U144G	-2.22
C54A A64G C76G C93U A138C	≤ -4.2
A52G G143C	-3.77
A52G U55A	-0.0825
A52G U55C	-0.523
A52G C75U	-0.679

Variant	polymerase ribozyme fitness (log ratio)
U53A U61A	-1.15
U53A U61G	-0.814
U53G U90A C93G A110C	≤ -4.2
C54A G86U C105U	-2.87
A52G G92A A113U	-3.81
C54U C85U G136U	-2.08
U53A G83C C105G	≤ -4.2
U53A C96U C114G	-4.15
U53C U56A G58A C76A A120G U134C	-3.01
U53A A122U A138U	-4.07
U53C U77G G124C U135C	≤ -4.2
C54G C87U G143C	-3.99
C54A C85G	-3
C54U C85U U104G A119G G136A U146G A147G	-3.62
A52G G84U C96U U139C U144C	≤ -4.2
C54U C99A U146G A150U	-3.6
U53A G59C C87U C96A A113G C125U	≤ -4.2
A52G G59C A60C C96G G126A A142U	≤ -4.2
C54G C57A G58C G94A	-0.504
U53A G84A G94A C103U C114U G126C	≤ -4.2
C54U A60G A64G C85U C99A C105U A106C	≤ -4.2
A52G G58A C72A G83U C96U	≤ -4.2
U53A C96A C125U	-1.41
A52U U53A C96U A119C	-2.05

Variant	polymerase ribozyme fitness (log ratio)
C54U C123U G124A U144C	-0.47
A52G U82G	0.0484
A52U C63U C85U C116G	-0.741
C54A U56A C96U C105U G126A	-2.51
U53C C57U A60G C69A A97U G141A U146C	-0.526
C54U U55A A120G G143U	-2.38
C54A C85G G124U	-3.78
C54A G83U U134A U148C	≤ -4.2
C54U U56G C57U C76U C95G	-2.9
C54U G68A A97G G124A U144C	-3.84
A52U C93A U109C U111G G140C G152A	≤ -4.2
A52G C95A C99A	-1.54
A52U G84U	-2.48
C54U U55G U56A C69U A73C A115U	≤ -4.2
U53A C95A	-0.902
C54U C85U C116A	0.743
U53C C116G	0.204
A52U U55G C76U	-4.08
A52G G117A	-0.121
A52G G117U	0.374
A52G G74A A137U	≤ -4.2
U53A G143U	-3.09
C54G G141A	-1.35
